B1: GST-Coa-N (N-terminal half of Coa) (domain or fragment)
chain: IVTKDYSGKSQVNAGSKNGTLIDSRYLNSALYYLEDYIIYAIGLTNKYEYGDNIYKEAKDRLLEKVLREDQYLLERKKSQYEDYKQWYANYKKENPRTDLKMANFHKYNLEELSMKEYNELQDALKRALDDFHREVKDIKDKNSDLKTFNAAEEDKATKEVYDLVSEIDTLVVSYYGDKDYGEHAKELRAKLDLILGDTDNPHKITNERIKKEMIDDLNSIIDDFFMETKQNRPKSITKYNPTTHNYKTNSDNKPNFDKLVEETKKAVKEADDSWKKKTVKKYG
modifications: plasma-purified hexamer (AαBβγ)2, disulfide-linked, N-glycosylated, fibrinopeptides A and B retained. Predominant plasma forms assumed: 610-residue Aα and 411-residue γA (the P02679 canonical …)
B2: Human fibrinogen (complex)
chain 1: ADSGEGDFLAEGGGVRGPRVVERHQSACKDSDWPFCSDEDWNYKCPSGCRMKGLIDEVNQDFTNRINKLKNSLFEYQKNNKDSHSLTTNIMEILRGDFSSANNRDNTYNRVSEDLRSRIEVLKRKVIEKVQHIQLLQKNVRAQLVDMKRLEVDIDIKIRSCRGSCSRALAREVDLKDYEDQQKQLEQVIAKDLLPSRDRQHLPLIKMKPVPDLVPGNFKSQLQKVPPEWKALTDMPQMRMELERPGGNEITRGGSTSYGTGSETESPRNPSSAGSWNSGSSGPGSTGNRNPGSSGTGGTATWKPGSSGPGSTGSWNSGSSGTGSTGNQNPGSPRPGSTGTWNPGSSERGSAGHWTSESSVSGSTGQWHSESGSFRPDSPGSGNARPNNPDWGTFEEVSGNVSPGTRREYHTEKLVTSKGDKELRTGKEKVTSGSTTTTRRSCSKTVTKTVIGPDGHKEVTKEVVTSEDGSDCPEAMDLGTLSGIGTLDGFRHRHPDEAAFFDTASTGKTFPGFFSPMLGEFVSETESRGSESGIFTNTKESSSHHPGIAEFPSRGKSSSYSKQFTSSTSYNRGDSTFESKSYKMADEAGSEADHEGTHSTKRGHAKSRPV
chain 2: QGVNDNEEGFFSARGHRPLDKKREEAPSLRPAPPPISGGGYRARPAKAAATQKKVERKAPDAGGCLHADPDLGVLCPTGCQLQEALLQQERPIRNSVDELNNNVEAVSQTSSSSFQYMYLLKDLWQKRQKQVKDNENVVNEYSSELEKHQLYIDETVNSNIPTNLRVLRSILENLRSKIQKLESDVSAQMEYCRTPCTVSCNIPVVSGKECEEIIRKGGETSEMYLIQPDSSVKPYRVYCDMNTENGGWTVIQNRQDGSVDFGRKWDPYKQGFGNVATNTDGKNYCGLPGEYWLGNDKISQLTRMGPTELLIEMEDWKGDKVKAHYGGFTVQNEANKYQISVNKYRGTAGNALMDGASQLMGENRTMTIHNGMFFSTYDRDNDGWLTSDPRKQCSKEDGGGWWYNRCHAANPNGRYYWGGQYTWDMAKHGTDDGVVWMNWKGSWYSMRKMSMKIRPFFPQQ
chain 3: YVATRDNCCILDERFGSYCPTTCGIADFLSTYQTKVDKDLQSLEDILHQVENKTSEVKQLIKAIQLTYNPDESSKPNMIDAATLKSRKMLEEIMKYEASILTHDSSIRYLQEIYNSNNQKIVNLKEKVAQLEAQCQEPCKDTVQIHDITGKDCQDIANKGAKQSGLYFIKPLKANQQFLVYCEIDGSGNGWTVFQKRLDGSVDFKKNWIQYKEGFGHLSPTGTTEFWLGNEKIHLISTQSAIPYALRVELEDWNGRTSTADYAMFKVGPEADKYRLTYAYFAGGDAGDAFDGFDFGDDPSDKFFTSHNGMQFSTWDNDNDKFEGNCAEQDGSGWWMNKCHAGHLNGVYYQGGTYSKASTPNGYDNGIIWATWKTRWYSMKKTTMKIIPFNRLTIGEGQQHHLGGAKQAGDV
modifications: plasma-purified hexamer (AαBβγ)2, disulfide-linked, N-glycosylated, fibrinopeptides A and B retained. Predominant plasma forms assumed: 610-residue Aα and 411-residue γA (the P02679 canonical …)
B3: GST-Coa-C (C-terminal half of Coa) (domain or fragment)
chain: ETETKSPVVKEEKKVEEPQAPKVDNQQEVKTTAGKAEETTQPVAQPLVKIPQGTITGEIVKGPEYPTMENKTVQGEIVQGPDFLTMEQSGPSLSNNYTNPPLTNPILEGLEGSSSKLEIKPQGTESTLKGTQGESSDIEVKPQATETTEASQYGPRPQFNKTPKYVKYRDAGTGIREYNDGTFGYEARPRFNKPSETNAYNVTTHANGQVSYGARPTYKKPSETNAYNVTTHANGQVSYGARPTQNKPSKTNAYNVTTHGNGQVSYGARPTQNKPSKTNAYNVTTHANGQVSYGARPTYKKPSKTNAYNVTTHADGTATYGPRVTK
modifications: plasma-purified hexamer (AαBβγ)2, disulfide-linked, N-glycosylated, fibrinopeptides A and B retained. Predominant plasma forms assumed: 610-residue Aα and 411-residue γA (the P02679 canonical …)

Experiments:
Conditions in all cases: both partners purified
[1] = biological target: Human fibrinogen (human, UniProt P02671 36-866; P02675 45-491; P02679 27-453); assay: ELISA; Fg coated on wells (5 μg/ml, 0.5 μg/well); GST-vWbp or GST-Coa proteins in 1% BSA, 0.05% Tween 20, TBS, 1 h at room temperature; detected with HRP anti-GST; one-site fit, apparent KD, mean of three experiments
Human fibrinogen, sequence (P02671 36-866, one chain of several): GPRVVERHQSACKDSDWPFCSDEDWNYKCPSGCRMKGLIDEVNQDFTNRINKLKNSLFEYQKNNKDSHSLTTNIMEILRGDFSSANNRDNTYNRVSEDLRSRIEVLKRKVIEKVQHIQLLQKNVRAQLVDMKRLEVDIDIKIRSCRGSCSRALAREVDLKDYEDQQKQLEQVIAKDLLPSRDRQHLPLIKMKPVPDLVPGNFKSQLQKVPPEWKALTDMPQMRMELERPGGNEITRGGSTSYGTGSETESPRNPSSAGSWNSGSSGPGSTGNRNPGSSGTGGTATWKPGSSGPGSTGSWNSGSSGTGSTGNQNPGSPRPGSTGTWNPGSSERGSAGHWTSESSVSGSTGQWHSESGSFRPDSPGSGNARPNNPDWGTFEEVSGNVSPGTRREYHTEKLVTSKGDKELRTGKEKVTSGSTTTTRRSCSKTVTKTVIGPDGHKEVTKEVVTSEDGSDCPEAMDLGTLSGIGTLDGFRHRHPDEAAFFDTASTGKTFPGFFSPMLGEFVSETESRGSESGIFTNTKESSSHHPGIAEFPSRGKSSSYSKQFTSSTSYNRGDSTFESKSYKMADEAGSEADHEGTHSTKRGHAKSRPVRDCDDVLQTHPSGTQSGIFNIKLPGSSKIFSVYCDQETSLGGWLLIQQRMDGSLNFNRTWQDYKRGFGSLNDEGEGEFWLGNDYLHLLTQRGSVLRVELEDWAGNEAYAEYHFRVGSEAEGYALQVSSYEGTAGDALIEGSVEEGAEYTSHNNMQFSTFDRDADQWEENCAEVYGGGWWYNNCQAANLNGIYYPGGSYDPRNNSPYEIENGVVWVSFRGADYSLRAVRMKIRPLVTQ

[2] = biological target: T1, GST-vWbp (full-length von Willebrand factor binding protein) (S. aureus strain Newman); assay: as above
T1 construct: Cloned in pGEX-5x-1; also called full-length vWbp; source: E. coli BL21 (DE3)-derivative Acella, purified (glutathione-Sepharose 4B, gel permeation); not shown: GST, N-terminal, kept

[3] = biological target: T2, GST-Coa (full-length Coagulase) (S. aureus strain Newman); assay: as above
T2 construct: Coagulase (Coa), S. aureus strain Newman, coa gene amplified from chromosomal DNA; cloning described in Ko et al., 2016; the recombinant protein probably lacks it; also called intact Coa; source: E. coli BL21 (DE3)-derivative Acella, purified (glutathione-Sepharose 4B, gel permeation); not shown: GST, N-terminal, kept

[4] = biological target: T1, GST-vWbp (full-length von Willebrand …); assay: ELISA; GST-vWbp or GST-Coa coated on wells (5 μg/ml, 0.5 μg/well); soluble Fg in 1% BSA, 0.05% Tween 20, TBS; detected with HRP anti-human Fg; one-site fit, apparent KD, mean of three experiments
[5] = biological target: T2, GST-Coa (full-length Coagulase); assay: as above

Binder	Kd [1]	Kd [2]	Kd [3]	Kd [4]	Kd [5]
B1	20 nM	–	–	–	–
B2	–	9.9 nM	2.4 nM	5.3 nM	0.09 nM
B3	0.46 nM	–	–	–	–
